According to paper PMC11482926 (bioRxiv, 2024):

Assays:
NEDD8 = NEDD8 (UniProt Q15843 1-76); assay: NMR titration
ubiquitin = ubiquitin (UniProt P0CG48 1-76); assay: NMR titration

B1: UBZ domain of Pol η (amino acids 628–662) (domain or fragment)
chain: AAEDQVPCEKCGSLVPVWDMPEHMDYHFALELQKS
B1 gave a Kd (NEDD8) of 671 ± 153 µM and a Kd (ubiquitin) of 159 ± 9.5 µM.
